Assay: yeast display, Sf9 membrane polyspecificity reagent, FACS + sequencing; frameworks hold sequencing errors
How it was run: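 Using colony PCR, genes from sorted yeast display clones were amplified, then sequenced on MiSeq at 2 × 250 and filtered by CDR length. The clones had been stained with 10% biotinylated, detergent-solubilized Sf9 membrane reagent for 1 hour at 4 °C and sorted by FACS into low and high (top ~1%) gates on anti-HA and streptavidin fluorescence. Polyreactivity labels come from the gate of origin.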

Row | Sequence | polyreactivity (PSR sort gate)
1 | QVHLVESGGGLVNAGGTLRLSCAASGSTYSRYAMGWYRQAPVKESELVAAITRSGGSTYYADSVKGRFTISRDNAKNTVYLQMNSLKPEDTAVYYCNRPRLYGGSPYYYWGQGTQVTVSS | high polyreactivity
2 | QVQLVESGGGLVQAGGSLRLRCAASGRLFQSNAMGWYIQAPGKERELVSGINSDTSTYYADSVKGRFTISRDNAKNTVYLKMNSLKPDDTAVYYCNAGWDTYYWQSTEFDYWGQGTQVTVSS | low polyreactivity
3 | QDQLGESGGGLVQAGGSLRLSCAAAGSIFGTNAMGWYRQAPGKEREFVATISSRTGSTYYADSVKGRFTISRDNAKNRVYLQMNSLKPEDPAVYYCAAVRWYGKYDDWGQGTQVTVSS | low polyreactivity
4 | QVQLVESGGGLVQAGGSLRLICAASGFIFSSYAMVWYRQAPGKERDLVAAISQTVGGTYYADSVKGRFTISRDNAKNTVYLQMNSLKPEDTAVYYCAADVYTASDRYWHDYWGQGTQVTVSS | low polyreactivity
5 | QVQLVESGGGLDQAGGSLRLSCAASGSIFPINAMGWYRQAPGKEREFDAAISSRGGSTYYADSVKGRFTISRDNAKNTVYFQMNSLKPEDTAVYYCAKYASVGYGRYPYDYWGQGTQVTVSS | high polyreactivity
6 | QVQLVESGGGLVQAGGSLRLSCAASGRTFYIYAMGWYRQAPGKERELVAAISTRDTRTYYADSVKGRFTISRDNAKNTVYLQMNSLKPEDTAVYYCAADAVDRDSDYWGQGTQVTVSS | high polyreactivity
7 | QVQLVESGGGLVQEGGSLRLSCAASGIIFLDNAMGWYRQAPGKERELVAAITTGGITYYADSVKGRFTISRDNAKNTVYLQMNSLKPEDTAVYYCATDPVNSGYQRYYYWGQGTQVTVSS | low polyreactivity
8 | QVQLQESGGGLVQAGRSQRLSCAASGYIFYFQYMGWYRQAPGKEREFVAAISDGANTNYADSVKGRFTISRDNAKNSEYLQMNSLKPEDTAVYYCAVYADENYYYIYWGQGTQVTVSS | low polyreactivity
9 | QVQLVESGGVLGQAGVSLRLSCAASGRIFDGNTMGWYIQAPGQEREFVAAISGGGSTYYADSVKGRFTISRDNAKNTVYLQMNSLKPEDTAVYYCAATTGPVPLKGDYWGQGTQVTVSS | low polyreactivity
10 | QVQLVESGVGLVQAGGSLRISCAASGGTFLWYAMGRYRQAPGKERELVADITYSGGSTYYADSVKGRFTISRDNAKNTVYLQMNSLKPEDTAVYYCATRGVSPSRPGYYWGQGTQVTVSS | high polyreactivity
11 | QVQLVESGGGLVQAGGSLRLSCAASGFIFRYYAMGWYRQAPGKERELVAAITRGGSTYYADSVKGRFTISRDNAKNTVYLQMNSLKPEDTAVYDCAARLYTQYYYWGQGTQVTVSS | high polyreactivity
12 | QVQLVESGGCLVQAGGSLRLSCAASGSTFGYNAMGWYRQATGKERELVAAITWTGASTYYADSVKGRFTISRDNAKNTVYLKINSLKPEDTEVYYCNRVGYQSMNYWGQGTQVTVSS | low polyreactivity
13 | QVQLVESGGGLVQAGGSLRLSCAASGRTFVRNAMGWYRPAPGKERELVAAISSIGDSTYYADSVKGRFTISRDNAKNTVYLQMNSLKPEDTAVYYCAAEWVTSYYNYYHWGQGTQVTVSS | low polyreactivity
14 | QVQLVESGGGLVQAGGSLRLSCAASGFTFYRYAMGWYRQAPGKERQLVAAISRRGGSTDYADSVKGRFTISRDNAKNTVYLQMNRLKPEDTAVYYCAASYSRGVGKLGYWGQGTQVTVSS | high polyreactivity
15 | QVHLVESGGVLVQAGGSLRLSCAASGIALLYYTMGWYRQAPGKERELVAAINSGGRTYYADSVKGRYTISRDNAKNTGYLQMNSLKPDDTAVYFCAAHGGADHMDYWGQGTQVTVSS | high polyreactivity
16 | QVQLVESGGGLVQAGGSLRLSCDASGSTIYPYAMGWYRQAPGKERELVAAISSGGRTYYADSVKGRFTISRDNAKTTVYLQMNSLKPEDTAGYYCATYYYGWYTIDFYYWGQGTQVTVSS | high polyreactivity
17 | QVQLVESGRGLVQAGGSLRLSCAASGRIFFKYAMGRYRPAPGKERELVAAISSSGGRTSYADSVKGRFTISRDNAKNTVYLQMNSLKPEDTAVYYCNVKPSARGSPLYDYWGQGTQVTVSS | high polyreactivity
18 | QVQLVESGGGLVQAGGSLRLSCAASGRTFDVYAMGWYRPAPGKERELVATIRSDGSTTYADSVKGRFTISRDNAKNTDYLQLNSLKPEDTAVYYCAAERVGVFFRYDYWGQGTQVTVSS | low polyreactivity
19 | QVQLVESGGGLVQAGGSLRLSCAASGFTFRRYAMGWYRQAPGKERVLVAAISRGGSSTYYADSVKGRFTISRDNAKNTVYLQMNSLKPEDTAVYYCNARTYVALGFNYWGQGTQVTVSS | high polyreactivity
20 | QVQLVESGGGLVQAGGSLRLSCAASGRTFASNALGWYRQAPGKERELVADISSSGGTTYYADSVKGRFTISRDNAKNTVYLQMNSLKPEDTAVYYCAAVSSQDDPVKAWDYDYWGQGTQVTVSS | low polyreactivity
21 | QVQLVESGGGLVQAGGSLRLSCAASGFIFPSYAMGWYRQAPGKERELVAAITSSGGSTYYADSVKGRFTISRDNAKNTVYLQMNSLKPEDTAVYYCNARYPGRARRYNYWGQGTQVTVSS | high polyreactivity

Row | Sequence | polyreactivity (PSR sort gate)
22 | PVQLVESGGGIVQAGGSLRLSCAASGSTFVGKAMGWSRQAPGKQREMFAAISRTGGSPYYADSVKGRFSISRDNAKNSVYLQMISLKPEDTAVYYCAEVYGGPYGELDYWGHGTQVTVSS | high polyreactivity
23 | QVQLVESGGGLVQAGGSLRLSCAASGRIFYPYAMGWYRQAPGKERELVAAITYSGGSTYYADSVKGRFTISRDNAKNTVYLQMNSLKPEDTAVYYCNAVQRGSFYLGKFGYWGQGTQVTVSS | high polyreactivity
24 | QVQLVESGGGLVQAGGSLRLSCAASGGTFRNYPMGWYRQAPGKERELVAAITTGTITNYADSVKGRFTISRDNAKNTVYLQMNSLKPEDTAVYYCNAGAFYSDPYDYWGQGTQVTVSS | low polyreactivity
25 | QVQLVESGGGLVHAGGSLRLRCAASGRTFYFSNMGWYRQAPGKQRELVATIRWSAGSTYYADSVKGRFTISRDNAKNSVYLQMKSLKPEDTAVYYCNGDPYVYSSWQYGYWGQGTQVTVSS | high polyreactivity
26 | QVQLVESGGGLVQAGGSLRLSCAASGSTFAINAMGWYRQAPGKERELVAAITYSGGGTYYADSVKGRFTISRENAKNTVYLQMNSLKPEDTAVYYCYAYGRSWVFNYIGVFLYDYWGQGTQVTVSS | low polyreactivity
27 | QVQLVESGGGLVQAGGSLRLSCAASGNIFLFYVMGWYRQAPVKERELVAAITLSGTNTYYADSVKGRFTISRDNAKNNVYLQMNSLKPEDTAVYYCNADWWSDGYDYWGQRTQVTVSS | low polyreactivity
28 | QVQLVESGGGLVQAGGSLRLRCAASGSTFYGNTMGWNRQAPGKERELVAAITWTGGRTYYADSVKGRFTISRDNAKNTVYLQMNSLIPEDTAVYYCARGASFYQKFYYWGQGTQVTVSS | high polyreactivity
29 | QVQLVESGGALVQAGGSLRLSCAASGLTFTDYAMGWYRPAPGQERELVAGIWDGGSTYYADSVKGRFTISRDNAKNTVYLQMNSLKPEDTAVYYCAAEDWWTSFPEYYYWGQGTQVTVSS | high polyreactivity
30 | QVQLVESGGGLVQAGGSLRLSCAASGSTFYPYAMGWYRQAPGKERELVAAISSGGSTSYADSVKGRFTISRDNAKNTVYLQMNSLKPEDTEVYYCNASSPGAVPVYDYDYWGQGTQVTVSS | low polyreactivity
31 | QDQLVESGGGLVQAGGSLRLSCAASGSTFLINAMGWYRQAPGKERELVAAISDSGGSTHYADSVKGRFTISRDNAKNTVYLEMNSLKPEDTAVYYCAATIPTTLILYGYWGQGTQVTVSS | low polyreactivity
32 | QVQLVESGGGLVQAGGSLRLSCAASGITFLTYTMGWYRQAPGKERELVAAISRSGGRTYYADSVKGRFTISRDNAKNTVYLQMNSLKPEDTAVYYCAAVSANQDFDYWGQGTQVTVSS | high polyreactivity
33 | QVQLVESGGGLVQAGGSLRLSSAASGITFIRYAMGWYSQAPGKERELVAAISSGGSTNYADSVKGRFTISRDNAKNTVYLQMNSLKPEDTAVYYCAARYYWSFAYDYWGQGTQVTVSS | low polyreactivity
34 | QVQLVQSGGVLVQAGGSLRLSCAASGFIFNTYAMGWYRPAPGKERELVAAIDGRGGTTYYADSVKGRFTISRDYAKNTVYLQMHSLKPEDTAVYYCAARYQRLGIRYGYWGQGTQVTVSS | high polyreactivity
35 | QVQLVESGGGLVQAGGSLRLSCAASGSTFTINVMGWYRQAPGKERELVAAIHGGGRPNYADSVKGRFTISRDNAKKTVYLQMNSLKPEDTAVYYCAADGLSNVRQMDYWGQGTQVTVSS | low polyreactivity
36 | QVQLVESGGGLVQAGGSLRLSCAASGSTLVKYAMGWYRQAPGKERELVARITLNGGRTYYADSVKGRFTISRDNAKNTVYLQMNSLKPEDTAVYYCAKSLPHSTSRDYWGQGTQVTVSS | low polyreactivity
37 | QVQIVESGGGLVQAGGSLRLSCAASGRIYRYVMGWYRQAPGKERELVATITGSGGSTYYADSVKGRFTISRDNAKNTAYLQMNSLKPEDTAVYYCAAAGRGSWTTYRFDYWGLGTQVTVSS | high polyreactivity
38 | QVQLVESGGGLVQAGVSLRLSCAASGFIFVSYAMGWYRQAPGIERELVAAIDRIGGITYYADSVKGRFTISRDNAKNTVYLQMNSLKPVDTAVYYCAAAARYATVRVGREYYWGQGTQVTVSS | low polyreactivity
39 | QVQLVESGGGLVQAGGSLRLSCAASGFILIRNGMGCYRQAPGKERELVAAISRSGRTYYADSVKGRFTISRDNAKNTVYLQMNSLKPEDTAVYYCAKRDYLYGRYDYSGQGTQVTVSS | high polyreactivity
40 | QVQLVESGGGLVQAGGSLRLSCAASGFTFYYYAMGWYRQAPGKERELVAAISRGGGNTYYADSVKGRFTISRDNAKNTVYLQMNSLKPEDTAVYYCAARRPVYRIYGDRGRWYNYWGQGTQVTVSS | high polyreactivity
41 | QVQLVESGGGLVQAGGSLRLSCAASGIIFSKNAMGWYRQAPGKERELVATINRSGGSTYADSVKGRFTISRDNAKNTVYLQMNSLKPEDTAVYYCAKRASPFWRGYDSWGQGTQVTVSS | low polyreactivity

Source: the nanobody polyreactivity screen of Harvey et al. (2022)
